Results taken from patent US20050221288A1.

Key:
[1] = biological target: endogenous P-TEFb complex (positive transcription elongation factor b) (UniProt P50750); assay: cell-based or functional assay
[2] = biological target: endogenous P-TEFb complex (positive transcription elongation factor b) (UniProt P50750); assay: GST pull-down of endogenous P-TEFb from cell extract, read out by the Tat-associated kinase assay

UniProt P50750, sequence (P50750 whole entry, chain 1 of 2): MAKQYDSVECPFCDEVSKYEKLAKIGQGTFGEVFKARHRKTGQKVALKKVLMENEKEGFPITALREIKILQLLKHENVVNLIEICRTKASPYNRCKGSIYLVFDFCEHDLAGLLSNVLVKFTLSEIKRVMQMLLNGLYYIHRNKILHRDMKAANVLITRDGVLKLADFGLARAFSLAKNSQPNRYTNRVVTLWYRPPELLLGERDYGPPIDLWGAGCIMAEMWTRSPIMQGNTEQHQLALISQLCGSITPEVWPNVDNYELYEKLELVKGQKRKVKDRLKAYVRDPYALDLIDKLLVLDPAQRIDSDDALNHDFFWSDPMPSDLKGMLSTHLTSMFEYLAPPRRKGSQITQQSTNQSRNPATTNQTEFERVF
UniProt P50750, sequence (O60563 whole entry, chain 2 of 2, further chain): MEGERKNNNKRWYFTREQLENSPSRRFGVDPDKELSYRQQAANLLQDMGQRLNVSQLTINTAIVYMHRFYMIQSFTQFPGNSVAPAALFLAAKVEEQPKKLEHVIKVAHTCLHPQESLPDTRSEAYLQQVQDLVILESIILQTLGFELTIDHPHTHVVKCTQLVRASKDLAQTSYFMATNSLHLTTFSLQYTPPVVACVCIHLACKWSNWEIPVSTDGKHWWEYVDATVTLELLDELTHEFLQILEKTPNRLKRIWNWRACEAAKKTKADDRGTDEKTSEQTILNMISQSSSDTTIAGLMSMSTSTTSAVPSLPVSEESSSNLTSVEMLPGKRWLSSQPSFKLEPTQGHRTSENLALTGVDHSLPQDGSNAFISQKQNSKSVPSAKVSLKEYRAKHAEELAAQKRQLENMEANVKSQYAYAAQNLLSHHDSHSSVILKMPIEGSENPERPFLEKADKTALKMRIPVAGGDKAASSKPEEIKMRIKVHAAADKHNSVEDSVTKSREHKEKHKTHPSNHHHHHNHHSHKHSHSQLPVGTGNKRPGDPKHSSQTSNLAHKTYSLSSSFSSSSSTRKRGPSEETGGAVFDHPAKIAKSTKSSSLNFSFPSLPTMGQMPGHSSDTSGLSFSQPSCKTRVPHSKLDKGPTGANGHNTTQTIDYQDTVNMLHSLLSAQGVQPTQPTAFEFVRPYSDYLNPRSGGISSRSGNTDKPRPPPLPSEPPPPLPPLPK

**Q.** How did the extent of CTD phosphorylation (Tat-associated kinase assay after GST pull-down; U937 or 293 cell extract) (fold over wild-type Tat) [1] turn out when “GST-Tat T23N (1-72) (from UniProt P04608 1-72)” was run?
**A.** The extent of CTD phosphorylation (Tat-associated kinase assay after GST pull-down; U937 or 293 cell extract) (fold over wild-type Tat) was 3.5.

**Q.** And the fold stronger binding than wild-type Tat [2]?
**A.** Its fold stronger binding than wild-type Tat is 3.5 fold.
